Reference: US20230071609A1 (Genentech, published 2023)
One block for each binder: values may come before it.

What was measured:
[1] = target: T1, iAPOL1-G0 in podocytes (EIK variant, doxycycline-inducible, in APOL1 KO podocytes) (human, UniProt O14791 29-398); test: immunoelectron microscopy, iAPOL1-G0 podocytes, 25 µg/ml
T1 construct: Stably re-expressed untagged APOL1 isoform A in APOL1 KO clone 89401-3; also called iAPOL1-G0 podocytes; iAPOL1 podocytes
T1 chain: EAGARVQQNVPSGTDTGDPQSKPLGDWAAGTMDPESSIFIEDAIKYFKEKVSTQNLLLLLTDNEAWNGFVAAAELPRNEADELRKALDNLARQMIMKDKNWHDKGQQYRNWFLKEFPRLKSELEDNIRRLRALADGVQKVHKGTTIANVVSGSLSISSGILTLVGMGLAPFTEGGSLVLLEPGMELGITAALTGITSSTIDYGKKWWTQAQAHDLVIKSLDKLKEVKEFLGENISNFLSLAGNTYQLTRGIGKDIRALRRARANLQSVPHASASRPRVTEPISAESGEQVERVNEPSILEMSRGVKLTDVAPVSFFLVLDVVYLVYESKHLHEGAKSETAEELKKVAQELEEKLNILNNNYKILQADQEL

[2] = target: T2, gD-SRA-ID-GPI (construct e) (human, UniProt O14791 305-398, C-terminal GPI anchor); test: flow cytometry, live CHO cells expressing the construct, 5 µg/ml
T2 sequence: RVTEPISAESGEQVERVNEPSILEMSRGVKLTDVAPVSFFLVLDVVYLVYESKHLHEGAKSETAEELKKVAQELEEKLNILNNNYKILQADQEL
Protocol: Stably transfected live (not fixed or permeabilized) CHO cells expressing the gD-iAPOL1-GPI constructs indicated in FIGS. 1A-1E after induction with 5 μg/ml dox for 48 h, showing differential antibody binding at 5 μg/ml. […] White histograms are Alexa488 anti-mouse or anti-rabbit secondaries only; grey histograms are the anti-APOL1 signals. A representative histogram for each category is shown: 3.7D6 for PFD; 3.3A8 for C-terminus of MAD, 3.5H9 for N-terminus of MAD; 3.1C1 for SRA-ID; 3.2D4 for multi-domain; 3.3F7 for conformational and 3.5B10 for FACS-negative (FACS-ve). The prefix 3 in the name of the antibodies denotes murine monoclonals from Method #3 (as shown in Example 1 below); other antibodies (not illustrated here) starting with the number 4 are murine monoclonals derived from mice additionally boosted with SRA-ID protein; and prefix 5-named antibodies are rabbit monoclonals from Method #5 (Table 2A; and Example 2). […] The Sigma polyclonal (HPA018885, raised to aa 263-387) and the Epitomics rabbit monoclonal (EPR2907(2), raised to an undisclosed peptide) are SRA-ID binders. […]
Cells were harvested with 5 mM EDTA in PBS, washed once with growth media and twice with PBS. […] Signals were read in a FACSCalibur3 (Becton Dickinson), with the exception of FIG. 8A and FIG. 14, which used a FACSCelesta, and data was analyzed using FlowJo v8.4.5.

[3] = target: T3, endogenous APOL2 in human podocytes (human, UniProt Q9BQE5 1-337); test: western blot of WT and APOL1 KO podocyte lysates
T3 construct: In podocyte lysates (western blot) or fixed, permeabilized podocytes; also called 36 kDa APOL2 band
T3 sequence (looked up): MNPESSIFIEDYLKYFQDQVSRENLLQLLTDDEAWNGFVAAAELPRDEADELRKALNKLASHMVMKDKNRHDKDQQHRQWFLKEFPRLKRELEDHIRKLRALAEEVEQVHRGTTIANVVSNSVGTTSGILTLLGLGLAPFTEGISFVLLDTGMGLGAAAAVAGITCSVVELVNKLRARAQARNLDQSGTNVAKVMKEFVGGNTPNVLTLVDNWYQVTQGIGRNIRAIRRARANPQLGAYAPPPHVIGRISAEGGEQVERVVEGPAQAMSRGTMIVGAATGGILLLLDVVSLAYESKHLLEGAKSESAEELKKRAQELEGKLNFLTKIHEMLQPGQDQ
Protocol: The results corroborate the IF cross-reactivities, except for APOL4 cross-reactivity, which appears to be conformationally sensitive. The 3.6D12 antibody continues to recognize APOL2 in the APOL1 KO podocytes (generated as described in Example 1). Note the 4.17A5 western is shown at a longer exposure than the others.
Following three TBST washes, anti-mouse (GE Healthcare NA931V, 1:3000) or anti-rabbit HRP (Jackson 711-036-152, 1:8000) was added as secondary antibody. After 1 h, membranes were washed and protein detected using ECL prime (Amersham RPN2232) exposed to MR film (Kodak). Anti-actin HRP-conjugated antibody (clone 13E5, Cell Signaling Technologies 5125S at 1:5000) or calnexin (Abcam Ab22595 at 1:1000) was used as a loading control. For peptide mapping, 2 μl of 1 mM peptides in DMSO were boiled in 5× sample buffer and loaded on 10% Tris-Glycine gel and run using MES buffer. Cell pellets of Sf9 lysates were lysed in native RIPA (NP-40) lysis buffer and run on 10% Tris-Glycine gels.

- binding result [1]: binds
B1: rabbit monoclonal antibody 5.17D12 (antibody, V domains shown)
VH: QSLEESGGDLVKPGASLTLTCTASGFSFSSNYYMCWVRQAPGKGLEWIACVYVGSGGSTYYASWAKGRFTFSKTSSTTWTLQMTSLTAADTATYFCARDLSYAGDLWGPGTLVTVSS
VL: DPVMTQTPASVSEPVGGTVTINCQASESISSYLAWYQQKPGQPPKLLIYGASNLASGVPSRFKGSGSGTEYTLTISDLECDDAATYYCQSAYYSNSGGHAFGGGTEVVVKG
notes: Rabbit mAb (Method #5), recombinant; also called rabmab 5.17D12

- binding result [2]: binds
B2: antibody 3.1C1 (antibody, V domains shown)
VH: QVQLQQSGPELVKPGASVRISCKASGYTFTNYFIHWVKQRPGQGLEWIGWINPGNLNTKYTEEFKGKATLTADKSSSTAYIQLNSLTSEDSAVYFCVNGNPFVYWGQGTLVTVSA
VL: DIVMTQSPSSLTVIAGEKVTLNCKSSQSLLNSGNQKKYLTWLQQKPGQPPKLLIYWTSTRDSGVPDRFTGSGSGTDFTLTISSVQAEDLAVYYCQNDYSYPLTFGAGTKLEIKR
notes: Mouse mAb, cloned as murine IgG2a LALAPG; not written separately; also called SRA-ID mAb 3.1C1

- binding result [3]: binds
B3: antibody 3.6D12 (antibody, V domains shown)
VH: EVMLVESGGGLVRPGGSLKLSCTASGFTFSRCAMSWVRQTPEKRLEWVSAISRDSTYTYYSDSVKGRFTVSRDNAKNTLYLQMSSLRSEDTAMYYCARQIDDYYVDALDYWGQGTSVTVSS
VL: DVQITQSPSYLAASPGETITINCRASKIISKYLAWYQEKPGKTIKLLIYSGFTLQSGIPSRFSGSGSGTDFTLTISSLEPEDFAMYYCQQHNEYPLTFGAGTKLEIKR
notes: Mouse mAb (Method #3), cloned as murine IgG2a LALAPG; Early screens used hybridoma-purified antibody; also called mAb 3.6D12
